For one data set, the system named is PPARγ2. Description: GST pull-down / immunoprecipitation of sLZIP and PPARγ2 in transfected 293T cells. The class given is binding. The method, then:
(§1) 293T cells were obtained and washed with cold PBS. The cells were re-suspended in an IP lysis buffer [25 mM of Tris-HCl (pH 7.4), 150 mM of NaCl, 1 mM of EDTA, 1% NP-40 and 5% glycerol, and a protease inhibitor]. A suspension was centrifuged at 16,000×g for 20 minutes at 4° C. Supernatants were collected and incubated with 0.5 μg of appropriate antibodies and 25 μl of protein A/G-agarose or a GST Sepharose 4B bead for 24 hours at 4° C. A protein complex was centrifuged at 1,000×g with a cold IP lysis buffer for 1 minute and washed five times. The final pellet was re-suspended in 50 μl of an SDS-sample buffer containing 5% β-mercaptoethanol and heated for 10 minutes at 100° C. A protein sample was isolated in SDS-PAGE (8 to 10%) and transferred to nitrocellulose membranes. Co-precipitated proteins were detected according to western blotting using specific antibodies.
In order to examine whether the transcriptional activity of PPARγ2 is regulated by interaction with sLZIP, interaction between sLZIP and PPARγ2 was examined. For this purpose, 293T cells were transfected with GST-sLZIP and Myc-PPARγ2. Cell lysates were obtained and GST pull-down analysis was performed using a glutathione 4B bead. A protein complex was analyzed in SDS-PAGE and then immunoblotted with specific antibodies (FIG. 2A). The 293T cells were transfected with GST-PPARγ2 and Flag-sLZIP, and identified according to GST-pull-down analysis (FIG. 2B). PPARγ2 was translated in vitro by a TNT translation system (Promega). His-sLZIP proteins were expressed in BL21 cells using an IPTG-inducement system. Purified His-sLZIP proteins were subjected to His pull-down analysis. Proteins bound to the bead were analyzed in SDS-PAGE, and then immunoblotted with anti-PPARγ2 and anti-His antibodies (FIG. 2C). GFP-PPARγ2 and Flag-sLZIP constructs were expressed in C3H10T1/2 cells, and analyzed using mouse anti-Flag and Texas Red-labeled anti-mouse antibodies under a fluorescence microscope. The nucleus was stained with DAPI (FIG. 2D).
Activation of many nuclear receptors depends on a supplement of coactivators. Therefore, a domain of sLZIP necessary for binding with PPARγ2 was examined. For this purpose, 293T cells were transfected with GST-full length sLZIP (1-354), N-terminal deletion mutant sLZIP (1-228), C-terminal deletion mutant sLZIP (229-354), CC-terminal deletion mutant sLZIP (297-354) and PPARγ2. Cell lysates were obtained and GST pull-down analysis was performed using a glutathione 4B bead. A protein complex was analyzed in SDS-PAGE, and then immunoblotted with specific antibodies (FIG. 3A). 293T cells were transfected with Flag-full length PPARγ2, full length PPARγ2, N-terminal deletion mutant PPARγ2 (1-310), C-terminal deletion mutants PPARγ2 (139-505) and GST-sLZIP. Cell lysates were obtained and GST pull-down analysis was performed. A protein complex was analyzed in SDS-PAGE, and then immunoblotted with anti-GST and anti-Flag antibodies (FIG. 3B).
For this purpose, 293T cells were transfected with GST-PPARγ2 and Flag-sLZIP and were treated or not treated with 10 nM of RZD for 24 hours. Cell lysates were obtained and GST pull-down analysis (FIG. 5A) and immunoprecipitation (FIG. 5B) were performed using a glutathione 4B bead. A protein complex was analyzed in SDS-PAGE, and immunoblotted with anti-GST and anti-Flag antibodies. GST-PARγ2 and Flag-sLZIP were expressed in the 293T cells, and the cells were treated with 10 nM of RZD according to time of day. The cell lysates were GST pull-down analyzed (FIG. 5C). 293T cells were transfected with GST-HDAC3 and Flag-sLZIP, and treated or not treated with 10 nM of RZD for 24 hours. The cell lysates were GST pull-down analyzed (FIG. 5D). Flag-sLZIP was expressed in the 293T cells, and the cells were treated with 10 nM of RZD for 24 hours. Immunoprecipitation analysis of the cell lysates was performed using anti-NCoR1 antibodies. […]

The subject of data set [1] is multipotential mesenchymal progenitor cells. In words: Oil red O staining, differentiation of multipotential mesenchymal progenitor cells into adipocytes. The class given is cell-based. Particulars: C3H10T1/2 and 3T3-L1 cells.
Another data set concerns NCoR1. In words: Immunoprecipitation with anti-NCoR1 antibodies in 293T cells expressing Flag-sLZIP. The class given is binding. Particulars: 10 nM RZD for 24 hours. The method, then:
as §1
For this purpose, 293T cells were transfected with GST-PPARγ2 and Flag-sLZIP and were treated or not treated with 10 nM of RZD for 24 hours. […] A protein complex was analyzed in SDS-PAGE, and immunoblotted with anti-GST and anti-Flag antibodies. […] The cell lysates were GST pull-down analyzed (FIG. 5C). […] The cell lysates were GST pull-down analyzed (FIG. 5D). […] A protein complex was analyzed in SDS-PAGE, and then immunoblotted with anti-NCoR1 and anti-Flag antibodies (FIG. 5E). […]

A further data set is described as follows: Solubility of sLZIP. The class given is physicochemical. Particulars: saline or buffer solution.

B1: N domains of sLZIP: N-terminal deletion mutant of sLZIP, residues 1-228 (protein)
chain: MELELDAGDQDLLAFLLEESGDLGTAPDEAVRAPLDWALPLSEVPSDWEVDDLLCSLLSPPASLNILSSSNPCLVHHDHTYSLPRETVSMDLESESCRKEGTQMTPQHMEELAEQEIARLVLTDEEKSLLEKEGLILPETLPLTKTEEQILKRVRRKIRNKRSAQESRRKKKVYVGGLESRVLKYTAQNMELQNKVQLLEEQNLSLLDQLRKLQAMVIEISNKTSSSS
modifications: left off: a dimerising Fc or GST
As for B1, in the data set with PPARγ2 (293T cells, no ligand), the “interaction with PPARγ2 (GST pull-down)” value was “not interacted with PPARγ2”.

B2: sLZIP: human small leucine-zipper protein, isoform of LZIP, 354 amino acids, no transmembrane domain; GenBank FJ263669, SEQ ID NO: 1 (protein, listed as Homo sapiens)
chain: MELELDAGDQDLLAFLLEESGDLGTAPDEAVRAPLDWALPLSEVPSDWEVDDLLCSLLSPPASLNILSSSNPCLVHHDHTYSLPRETVSMDLESESCRKEGTQMTPQHMEELAEQEIARLVLTDEEKSLLEKEGLILPETLPLTKTEEQILKRVRRKIRNKRSAQESRRKKKVYVGGLESRVLKYTAQNMELQNKVQLLEEQNLSLLDQLRKLQAMVIEISNKTSSSSMYSSDTRGSLPAEHGVLSRQLRALPSEDPYQLELPALQSEVPKDSTHQWLDGSDCVLQAPGNTSCLLHYMPQAPSAEPPLEWPFPDLFSEPLCRGPILPLQANLTRKGGWLPTGSPSVILQDRYSG
B2: the “interaction with PPARγ2 (immunoprecipitation)” value in the data set with PPARγ2 (293T cells expressing Flag-sLZIP and GST-PPARγ2, ligand treated) is reported as “PPARγ2 was dissociated from sLZIP”. Further, the “interaction with PPARγ2 (GST pull-down)” value is “dissociated from PPARγ2” in the data set with PPARγ2 (293T cells, 10 nM RZD for 24 hours); “PPARγ2 interacted with sLZIP” with PPARγ2 (293T cells, no ligand); “interacted with PPARγ2” in the data set with PPARγ2 (293T cells, no ligand, listed as wild type sLZIP). In addition, in the data set on PPARγ2 (293T cells, 10 nM RZD, time course), the “time dependence of interaction with PPARγ2 (GST pull-down)” value is “dissociated from PPARγ2 in a time-dependent manner”. Moreover, in data set [1], the “adipocyte differentiation (oil red O staining)” value is on record as “inhibited adipocyte differentiation”. Also, in the data set on NCoR1, the “interaction with NCoR1 (immunoprecipitation)” value is “NCoR1 was slightly dissociated from sLZIP”. Also, in the data set “Solubility of sLZIP”, the solubility entry is on record as “very soluble in a saline or a buffer solution”.

Source of the values: patent publication US10058586B2, “Use of human small leucine zipper protein in adipocyte differentiation procedure” (Korea University Research and Business Foundation, priority 2013, dated 2018).
